From article doi:10.1101/431106, “The architecture of the endoplasmic reticulum is regulated by the reversible lipid modification of the shaping protein CLIMP-63” (bioRxiv, 2018)

Tests used:
[1] = molecular target: the molecule itself; experiment: cross-linking; disulfide trapping by an engineered cysteine; 35S Cys-Met 20 min pulse, immunoprecipitated using HA-beads, non-reducing SDS-PAGE, autoradiography; control cells and ZDHHC6 KO cells
[2] = molecular target: the molecule itself; experiment: cross-linking; HeLa cells crosslinked 5 min at room temperature with 1mM BMOE, 1mM DSS or 0.025% glutaraldehyde; non-reducing SDS-PAGE, anti-CLIMP-63 blot

Row | Protein | stoichiometry N [1] | stoichiometry N [2]
1 | HA-CLIMP-63 V137C (natural protein, UniProt Q07065 1-602, looked up, Made to trap dimers through a disulfide bond; also called V137C CLIMP-63; V137C mutant; source: HeLa (control or ZDHHC6 KO), transfected 24 hours, total cell extracts or immunoprecipitated with HA-beads; not shown: HA, N-terminal, kept) MPSAKQRGSKGGHGAASPSEKGAHPSGGADDVAKKPPPAPQQPPPPPAPHPQQHPQQHPQNQAHGKGGHRGGGGGGGKSSSSSSASAAAAAAAASSSASCSRRLGRALNFLFYLALVAAAAFSGWCVHHVLEEVQQCRRSHQDFSRQREELGQGLQGVEQKVQSLQATFGTFESILRSSQHKQDLTEKAVKQGESEVSRISEVLQKLQNEILKDLSDGIHVVKDARERDFTSLENTVEERLTELTKSINDNIAIFTEVQKRSQKEINDMKAKVASLEESEGNKQDLKALKEAVKEIQTSAKSREWDMEALRSTLQTMESDIYTEVRELVSLKQEQQAFKEAADTERLALQALTEKLLRSEESVSRLPEEIRRLEEELRQLKSDSHGPKEDGGFRHSEAFEALQQKSQGLDSRLQHVEDGVLSMQVASARQTESLESLLSKSQEHEQRLAALQGRLEGLGSSEADQDGLASTVRSLGETQLVLYGDVEELKRSVGELPSTVESLQKVQEQVHTLLSQDQAQAARLPPQDFLDRLSSLDNLKASVSQVEADLKMLRTAVDSLVAYSVKIETNENNLESAKGLLDDLRNDLDRLFVKVEKIHEKV | 2 | 
2 | cytoskeleton-linking membrane protein 63 (CLIMP-63), endogenous (natural protein, human (endogenous in HeLa), UniProt Q07065 1-602, looked up, S-palmitoylation on Cys-100 in the majority (87%) of the cellular protein, CLIMP-63 (CKAP4), endogenous protein of HeLa cells; also called CKAP4; source: endogenous, HeLa cells (membrane fraction, total cell extracts, fixed cells)) MPSAKQRGSKGGHGAASPSEKGAHPSGGADDVAKKPPPAPQQPPPPPAPHPQQHPQQHPQNQAHGKGGHRGGGGGGGKSSSSSSASAAAAAAAASSSASCSRRLGRALNFLFYLALVAAAAFSGWCVHHVLEEVQQVRRSHQDFSRQREELGQGLQGVEQKVQSLQATFGTFESILRSSQHKQDLTEKAVKQGESEVSRISEVLQKLQNEILKDLSDGIHVVKDARERDFTSLENTVEERLTELTKSINDNIAIFTEVQKRSQKEINDMKAKVASLEESEGNKQDLKALKEAVKEIQTSAKSREWDMEALRSTLQTMESDIYTEVRELVSLKQEQQAFKEAADTERLALQALTEKLLRSEESVSRLPEEIRRLEEELRQLKSDSHGPKEDGGFRHSEAFEALQQKSQGLDSRLQHVEDGVLSMQVASARQTESLESLLSKSQEHEQRLAALQGRLEGLGSSEADQDGLASTVRSLGETQLVLYGDVEELKRSVGELPSTVESLQKVQEQVHTLLSQDQAQAARLPPQDFLDRLSSLDNLKASVSQVEADLKMLRTAVDSLVAYSVKIETNENNLESAKGLLDDLRNDLDRLFVKVEKIHEKV |  | 2
